Measured values taken from article PMC6488228 (Nature microbiology, 2018).

Key:
[1] = molecular target: VgrG1 (from pRSFDuet-1::vgrG1::eagT6) (Pseudomonas aeruginosa); experiment: cryo-EM structure
[2] = molecular target: Tse6 (full-length, C-terminal His8 tag) (Pseudomonas aeruginosa, UniProt Q9I739 1-430); experiment: cryo-EM structure
Tse6 (full-length, C-terminal His8 tag), sequence (Q9I739 whole entry): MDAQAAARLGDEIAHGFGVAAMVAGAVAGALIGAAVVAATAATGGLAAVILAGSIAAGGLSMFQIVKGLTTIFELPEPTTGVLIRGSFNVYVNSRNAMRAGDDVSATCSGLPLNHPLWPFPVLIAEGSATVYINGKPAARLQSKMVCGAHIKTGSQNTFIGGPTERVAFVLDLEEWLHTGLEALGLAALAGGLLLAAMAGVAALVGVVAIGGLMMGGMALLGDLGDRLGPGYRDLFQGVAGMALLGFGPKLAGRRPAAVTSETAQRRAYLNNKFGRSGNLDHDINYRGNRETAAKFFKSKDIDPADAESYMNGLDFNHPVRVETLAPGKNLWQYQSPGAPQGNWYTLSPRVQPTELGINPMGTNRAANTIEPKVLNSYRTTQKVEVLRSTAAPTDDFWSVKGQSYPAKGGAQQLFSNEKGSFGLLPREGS

VgrG1 (from pRSFDuet-1::vgrG1::eagT6) (natural protein)
stoichiometry N [1]: 3

B1: EagT6 (from pRSFDuet-1::vgrG1::eagT6) (natural protein)
chain: MTLYRLHEADLEIPDAWQDQSINIFKLPASGPAREASFVISRDASQGDAPFADYVARQLENAEKQLPGFKLHKRWDINIHGHAAVLLDYQWQREGRDLMLRQVFIERRPAVLITTLTTTPADLPHHEPAWKQAMQTLVPRPTPS
binding result [2]: binds
